This passage reports EC50(M), Cell proliferation assay (Ba/F3-lepR), EC50(M), Luciferase assay and EC50, SIE-luciferase reporter assay results from US20220275097A1.

Numbering of substitutions follows the chain as printed.

B1: S2H7 (antibody, V domains shown)
VH: QVQLLQSGGGVVQPGRSLRLSCAASGFTFSSYGMHWVRQAPGKGLEWVAVISYDGSNKYYADSVKGRFTISRDNSKNTLYLQMNSLRAEDTAVYYCATRYENYFSTWGQGTLVTVSS
VL: EIVLTQSPGTLSLSPGERATLSCRASQSVSSNYLAWYQQKPGQAPRLLIYGASSRPTGIPDRFSGSGSGTDFTLTISRLEPEDFAVYYCQQYAASPLTFGGGTKLEIK
B2: S2H1 (antibody, V domains shown)
VH: B1 VH with T98S, R99L, T106L
VL: B1 VL
B3: S2H2 (antibody, V domains shown)
VH: B1 VH with R99F, Y100R, S105E, T106Y
VL: B1 VL
B4: S2H3 (antibody, V domains shown)
VH: B1 VH with T98G, R99V, Y100R, S105T, T106Y
VL: B1 VL
B5: S2H5 (antibody, V domains shown)
VH: B1 VH with T98S, T106L
VL: B1 VL

Chain of leptin receptor on reporter cells (SIE-luciferase reporter cells; Ba/F3-lepR reporter cells), P48357 (P48357 22-1165): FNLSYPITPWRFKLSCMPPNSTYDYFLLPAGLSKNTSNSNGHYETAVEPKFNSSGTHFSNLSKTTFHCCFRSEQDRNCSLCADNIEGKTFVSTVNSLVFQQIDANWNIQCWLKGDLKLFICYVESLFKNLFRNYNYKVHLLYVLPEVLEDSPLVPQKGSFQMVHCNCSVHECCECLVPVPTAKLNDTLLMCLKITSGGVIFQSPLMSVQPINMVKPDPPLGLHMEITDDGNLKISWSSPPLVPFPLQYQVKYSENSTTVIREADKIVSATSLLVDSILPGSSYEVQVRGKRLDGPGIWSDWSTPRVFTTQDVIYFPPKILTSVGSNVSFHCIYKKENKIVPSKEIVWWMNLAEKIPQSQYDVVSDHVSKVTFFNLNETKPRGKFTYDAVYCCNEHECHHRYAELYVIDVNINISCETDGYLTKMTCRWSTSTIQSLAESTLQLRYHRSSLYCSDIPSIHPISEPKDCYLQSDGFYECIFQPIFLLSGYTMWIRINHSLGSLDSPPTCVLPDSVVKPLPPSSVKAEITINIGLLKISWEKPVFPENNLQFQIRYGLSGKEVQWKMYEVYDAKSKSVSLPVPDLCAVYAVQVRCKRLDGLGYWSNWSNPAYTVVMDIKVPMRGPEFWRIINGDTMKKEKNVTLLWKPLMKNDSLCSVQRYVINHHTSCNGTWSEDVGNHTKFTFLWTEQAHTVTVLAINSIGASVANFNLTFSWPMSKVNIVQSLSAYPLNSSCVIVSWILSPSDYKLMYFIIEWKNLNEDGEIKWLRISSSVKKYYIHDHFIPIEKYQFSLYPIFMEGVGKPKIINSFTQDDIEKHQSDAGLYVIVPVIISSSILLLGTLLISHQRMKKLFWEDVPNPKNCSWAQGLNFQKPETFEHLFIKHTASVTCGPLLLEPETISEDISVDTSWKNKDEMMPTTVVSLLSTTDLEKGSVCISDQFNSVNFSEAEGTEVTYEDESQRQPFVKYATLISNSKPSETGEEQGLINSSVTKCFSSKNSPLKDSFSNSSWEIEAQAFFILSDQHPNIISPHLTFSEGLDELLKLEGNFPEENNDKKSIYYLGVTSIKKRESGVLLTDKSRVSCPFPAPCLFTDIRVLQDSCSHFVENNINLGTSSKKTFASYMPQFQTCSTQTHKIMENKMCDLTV

This assay addresses leptin receptor on reporter cells (SIE-luciferase reporter cells; Ba/F3-lepR reporter cells), P48357. Briefly: cell-based or functional assay.
For the molecule B1, the EC50(M), Cell proliferation assay (Ba/F3-lepR) is 1.15e-09 M; the EC50(M), Luciferase assay was found to be 4.94e-10 M; the EC50, SIE-luciferase reporter assay worked out at 494 pM.
The molecule B2 came in with an EC50(M), Cell proliferation assay (Ba/F3-lepR) of 4.19e-10 M; an EC50(M), Luciferase assay of 4.53e-10 M; an EC50, SIE-luciferase reporter assay of 453 pM.
Taken in the same sequence, the figures for B3 were 6.87e-10 M, 6.52e-10 M and 652 pM.
B4 came in with an EC50(M), Cell proliferation assay (Ba/F3-lepR) of 1.93e-10 M; an EC50(M), Luciferase assay of 3.28e-10 M; an EC50, SIE-luciferase reporter assay of 328 pM.
For the molecule B5, the EC50(M), Cell proliferation assay (Ba/F3-lepR) was 1.63e-09 M; the EC50(M), Luciferase assay came out at 7.38e-10 M; the EC50, SIE-luciferase reporter assay amounted to 738 pM.
